Laboratory results reported in article PMC5932227.

Biological target: cynomolgus OX40, native, on activated cynomolgus CD4 T cells (cynomolgus (endogenous in primary CD4 T cells))
Assay: flow cytometry on cells

“MEDI6383, human OX40 ligand IgG4P Fc fusion protein” gave a Kd of 24 pM.
